What was measured:
[1] = target: T1, synMDMX (synthetic MDMX comprising amino acids 24-108 of the full length MDMX protein) (human, UniProt O15151 24-108); assay: SPR competition, immobilized 15-29p53
T1 construct: range 24-108; A biotinylated form was the bait in the phage selections; also called MDM4; biotin-synMDMX
T1 sequence (looked up): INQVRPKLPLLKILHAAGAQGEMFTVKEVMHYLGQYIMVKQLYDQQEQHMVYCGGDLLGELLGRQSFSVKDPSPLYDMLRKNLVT

[2] = target: T2, synMDM2 (synthetic MDM2 comprising amino acids 25-109 of the full length MDM2 protein) (human, UniProt Q00987 25-109); assay: phage display selection, peptide on M13 pIII, biotin-synMDM2 as bait
T2 construct: range 25-109; A biotinylated form (biotin-synMDM2) was the bait in the phage selections; also called biotin-synMDM2

[3] = target: T1, synMDMX (synthetic MDMX comprising …); assay: phage display selection, peptide on M13 pIII, biotin-synMDMX as bait

T2 sequence (Q00987 25-109 limits assumed): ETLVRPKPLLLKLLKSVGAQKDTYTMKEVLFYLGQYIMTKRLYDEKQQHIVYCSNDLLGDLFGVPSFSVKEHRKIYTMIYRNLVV

CYSFDCLWKCLAMGFSSGKCINSKCKC (designed binder, also called L-Stoppin-1) [stoppin-1]
fold lower affinity than 15-29p53 [1]: ~4 fold

B1: L-PMI-2 (peptide)
peptide: DDWFQRVWSPLM
notes: Reported only as a phage clone: the 12-mer was fused through a GlyGlyGlySer spacer to the N-terminus of M13 pIII
binding result [2]: binds
binding result [3]: binds

Reference: US20110183917A1 (UNIVERSITY OF MARYLAND BALTIMORE, published 2011)
